# From PMC3087119 (Human Mutation, 2011)
# Target: the molecule itself
# Assay: static light scattering
protein,measurement,value
βA3-crystallin (natural protein) METQAEQQELETLPTTKMAQTNPTPGSLGPWKITIYDQENFQGKRMEFTSSCPNVSERSFDNVRSLKVESGAWIGYEHTSFCGQQFILERGEYPRWDAWSGSNAYHIERLMSFRPICSANHKESKMTIFEKENFIGRQWEISDDYPSLQAMGWFNNEVGSMKIQSGAWVCYQYPGYRGYQYILECDHHGGDYKHWREWGSHAQTSQIQSIRRIQQ,stoichiometry N,2
